Data taken from US20180186890A1 (UNITED STATES OF AMERICA AS REPRESENTED BY THE SECRETARY …, published 2018).

Molecular target: T1, mouse CD276 expressed on the cell surface (mouse, UniProt Q8VE98 29-316)
T1 construct: whole, on cells; also called CHO-msCD276; host CD276 on tumor vasculature of CD276 WT mice
T1 sequence (looked up): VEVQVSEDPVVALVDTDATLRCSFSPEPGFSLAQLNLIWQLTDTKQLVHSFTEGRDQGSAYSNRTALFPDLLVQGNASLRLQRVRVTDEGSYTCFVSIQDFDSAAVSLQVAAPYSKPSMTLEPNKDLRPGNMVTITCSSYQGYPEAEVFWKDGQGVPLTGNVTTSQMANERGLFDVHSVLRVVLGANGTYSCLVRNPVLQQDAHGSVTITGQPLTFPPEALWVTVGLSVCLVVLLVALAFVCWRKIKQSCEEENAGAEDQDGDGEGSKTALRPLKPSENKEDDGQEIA
Experiment: immunofluorescence of tumor vasculature after IP injection; no green staining in CD276 KO mice

binding result: binds
B1: FITC-labeled human anti-CD276 antibody m8524 IgG1 (antibody, V domains shown)
VH: QVQLQQSGAEVKKPGSSVKVSCKASGGTFSSYAISWVRQAPGQGLEWMGGIIPILGIANYAQKFQGRVTITADESTSTAYMELSSLRSEDTAVYYCARGGSGSYHMDVWGKGTTVTVSS
VL: EIVLTQSPATLSLSPGERATLSCRASQSVSSYLAWYQQKPGQAPRLLIYDASNRATGIPARFSGSGSGTDFTLTISSLEPEDFAVYYCQQRSNWPPRITFGQGTRLEIK
modifications: FITC-labeled antibody (site not stated)
notes: IgG1; also called anti-CD276 mAb
